Test results published in patent publication US20080056997A1.

Target: human domain D of tenascin C (TnC-D) (human) (UniProt P24821)
Assay: method not stated in the sentence (ELISA-positive clone, further characterization)

Sequence of UniProt P24821 (P24821 1622-1711): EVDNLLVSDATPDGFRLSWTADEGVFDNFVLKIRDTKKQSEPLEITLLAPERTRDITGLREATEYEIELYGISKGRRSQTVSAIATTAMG

B1: scFv(P12) (scFv, part only; not given: VH-VL peptide linker, part only)
scFv, part: EVQLVESGGGLVQPGGSLRLSCAASGFTFGQYSMSWVRQAPGKGLEWVSAITGTGGETYYADSVEGRFTISRDNSKNTLYLQMNSLRAEDTAVYYCAKGRRIFDYWGQGTLVTVSRSSELTQDPAVSVALGQTVRITCQGDSLRRQPASWYQQKPGQAPVLVIYYKKLRPSGIPDRFSGSSSGNTASLTITGAQAEDEADYYCNSFSPKPKPVVFGGGTKLTVLG
B1 gave a factor of affinity improvement compared to scFv(D11) of 4.8 fold.
